Test results: US6627405 (CURAGEN, dated 2003)
Blank lines part the entries; values can stand above or below the binder they belong to.

Experiments:
Assay in all cases: yeast two hybrid mating, growth on selective medium
[1] = biological target: T1, Ral GDS (GenBank Acc. No. U14417) (UniProt Q12967 1-914, limits assumed)
T1 construct: Expressed as a Gal4 hybrid in yeast
T1 sequence (looked up): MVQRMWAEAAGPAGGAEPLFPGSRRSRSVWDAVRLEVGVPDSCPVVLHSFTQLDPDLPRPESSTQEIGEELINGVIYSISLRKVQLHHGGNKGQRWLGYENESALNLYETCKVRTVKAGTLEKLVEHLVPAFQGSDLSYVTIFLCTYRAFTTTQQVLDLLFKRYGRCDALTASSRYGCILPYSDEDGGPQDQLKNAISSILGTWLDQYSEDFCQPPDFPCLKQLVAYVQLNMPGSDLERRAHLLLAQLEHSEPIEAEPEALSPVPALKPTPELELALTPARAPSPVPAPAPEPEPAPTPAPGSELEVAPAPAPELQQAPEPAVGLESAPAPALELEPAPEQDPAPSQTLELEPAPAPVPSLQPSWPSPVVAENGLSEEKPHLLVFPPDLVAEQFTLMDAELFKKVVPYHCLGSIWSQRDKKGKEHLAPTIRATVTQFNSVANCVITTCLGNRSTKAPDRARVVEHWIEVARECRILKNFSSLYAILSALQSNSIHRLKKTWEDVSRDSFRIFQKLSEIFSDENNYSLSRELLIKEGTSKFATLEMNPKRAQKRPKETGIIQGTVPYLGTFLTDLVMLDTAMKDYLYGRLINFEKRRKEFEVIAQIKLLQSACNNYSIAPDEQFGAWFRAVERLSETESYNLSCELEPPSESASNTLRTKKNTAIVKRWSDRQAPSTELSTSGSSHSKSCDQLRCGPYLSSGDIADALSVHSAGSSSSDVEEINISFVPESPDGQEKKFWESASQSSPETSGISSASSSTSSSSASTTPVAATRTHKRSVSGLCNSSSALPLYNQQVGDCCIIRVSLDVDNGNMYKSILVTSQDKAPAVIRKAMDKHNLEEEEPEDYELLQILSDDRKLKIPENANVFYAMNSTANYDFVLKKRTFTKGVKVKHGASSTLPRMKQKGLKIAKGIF
Procedure: (§1) The two mating strains, alpha and a, were then, diluted in YAPD media (Sherman et al., eds., 1991, *Getting Started with Yeast*, Vol. 194, Academic Press, New York), filtered onto nitrocellulose membranes, and incubated at 30 degrees Celsius for 6–8 hours. The cells were then transferred to media selective for the desired diploids, i.e., yeast harboring reporter genes for beta-galactosidase, uracil auxotrophy, and histidine auxotrophy, and expression of the vectors encoding the bait and prey. The mating products were plated on SC (synthetic complete) (Kaiser et al. eds., 1994, *Methods in Genetics*, 1994 ed., Cold Spring Harbor Press, New York, p. 209) media lacking adenine and lysine (to select for successful mating), leucine and tryptophan (to select for expression of genes encoded by both the bait and prey plasmids), and uracil and histidine (to select for protein interactions). This medium is herein referred to as SCS medium, for SC Selective medium.
(§2) No. X03541, Martin-Zanca, et al., 1986, Nature 319: 743–748), EST M62042 (Adams et al., 1991, Science 252: 1651–1656), Ral GDS (GenBank Acc. No. U14417, Hofer, et al., 1994, Proc. Natl. Acad. Sci. U.S.A. 91: 11089–11093) or E2F (GenBank Acc. […] No. M92424, Oliner et al., 1994, direct submission), CAS (GenBank Acc. No. U33286, Brinkmann et al., 1995, Proc. Natl. Acad. Sci. U.S.A. 92: 10427–10431), and PA9 (GenBank Acc. No. S82076, Yang et al., 1996, Carcinogenesis 17:563–567) Specifically, lack of growth for p62 and β-tubulin interactions with MDM2 is depicted in FIG. 7.

[2] = biological target: T2, pRb (GenBank Acc. No. M28419) (UniProt P06400 1-928, limits assumed)
T2 construct: Expressed as a Gal4 hybrid in yeast
T2 sequence (looked up): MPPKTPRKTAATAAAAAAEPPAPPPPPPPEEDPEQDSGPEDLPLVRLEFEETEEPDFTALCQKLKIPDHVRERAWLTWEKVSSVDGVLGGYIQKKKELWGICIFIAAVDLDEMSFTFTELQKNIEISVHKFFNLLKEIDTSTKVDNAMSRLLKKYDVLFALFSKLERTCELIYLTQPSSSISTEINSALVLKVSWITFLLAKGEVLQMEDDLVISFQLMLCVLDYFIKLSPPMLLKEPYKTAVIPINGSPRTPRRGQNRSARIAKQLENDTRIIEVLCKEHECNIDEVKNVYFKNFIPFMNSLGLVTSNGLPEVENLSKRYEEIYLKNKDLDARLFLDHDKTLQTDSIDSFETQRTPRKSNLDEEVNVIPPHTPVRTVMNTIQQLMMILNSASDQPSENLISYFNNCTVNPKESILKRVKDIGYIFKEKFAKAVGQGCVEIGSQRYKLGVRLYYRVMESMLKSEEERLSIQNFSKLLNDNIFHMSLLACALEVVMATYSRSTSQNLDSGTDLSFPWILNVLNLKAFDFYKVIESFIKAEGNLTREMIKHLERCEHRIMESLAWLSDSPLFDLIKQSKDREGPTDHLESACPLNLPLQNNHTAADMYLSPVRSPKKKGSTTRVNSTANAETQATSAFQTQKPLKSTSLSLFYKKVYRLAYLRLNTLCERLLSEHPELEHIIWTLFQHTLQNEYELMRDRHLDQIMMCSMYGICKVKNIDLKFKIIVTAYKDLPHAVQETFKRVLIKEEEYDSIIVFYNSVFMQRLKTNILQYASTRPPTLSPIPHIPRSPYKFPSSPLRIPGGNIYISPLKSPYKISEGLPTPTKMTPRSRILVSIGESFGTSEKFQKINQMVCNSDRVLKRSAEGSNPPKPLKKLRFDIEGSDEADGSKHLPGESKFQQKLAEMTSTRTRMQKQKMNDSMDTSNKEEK
Procedure: as §1, §2

[3] = biological target: T3, CAS (GenBank Acc. No. U33286) (UniProt P55060 1-971, limits assumed)
T3 construct: Bait hybrid expressed in yeast strain N106r
T3 sequence (looked up): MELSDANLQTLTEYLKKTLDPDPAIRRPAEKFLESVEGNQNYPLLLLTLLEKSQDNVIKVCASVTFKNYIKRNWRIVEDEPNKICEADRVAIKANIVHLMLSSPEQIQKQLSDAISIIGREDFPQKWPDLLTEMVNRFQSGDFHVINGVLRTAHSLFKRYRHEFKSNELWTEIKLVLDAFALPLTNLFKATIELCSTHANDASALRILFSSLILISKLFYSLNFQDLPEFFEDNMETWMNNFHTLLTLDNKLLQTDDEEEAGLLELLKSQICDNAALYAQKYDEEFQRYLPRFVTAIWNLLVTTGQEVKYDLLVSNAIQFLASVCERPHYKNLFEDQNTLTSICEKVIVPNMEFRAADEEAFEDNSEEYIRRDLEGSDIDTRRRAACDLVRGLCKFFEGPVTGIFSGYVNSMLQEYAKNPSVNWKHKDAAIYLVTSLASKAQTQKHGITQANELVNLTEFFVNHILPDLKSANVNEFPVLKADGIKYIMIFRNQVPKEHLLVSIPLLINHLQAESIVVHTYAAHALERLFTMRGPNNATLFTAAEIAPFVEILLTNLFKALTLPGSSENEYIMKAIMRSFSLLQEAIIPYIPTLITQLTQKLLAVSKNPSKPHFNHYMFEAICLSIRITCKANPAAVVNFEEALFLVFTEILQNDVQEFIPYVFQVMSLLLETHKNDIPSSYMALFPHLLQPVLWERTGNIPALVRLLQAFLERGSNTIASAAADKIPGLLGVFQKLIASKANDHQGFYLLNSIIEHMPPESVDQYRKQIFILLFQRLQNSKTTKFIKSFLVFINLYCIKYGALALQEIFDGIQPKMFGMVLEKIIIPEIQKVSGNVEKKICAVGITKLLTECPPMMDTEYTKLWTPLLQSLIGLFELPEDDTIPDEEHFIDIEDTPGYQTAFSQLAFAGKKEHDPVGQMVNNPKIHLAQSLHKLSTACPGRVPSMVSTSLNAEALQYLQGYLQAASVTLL
Procedure: as §1, §2

[4] = biological target: T4, MDM2 (GenBank Acc. No. M92424) (UniProt Q00987 1-491, limits assumed)
T4 construct: Bait hybrid expressed in yeast strain N106r; also called MDM2 bait
T4 sequence (Q00987 whole entry, one chain of several): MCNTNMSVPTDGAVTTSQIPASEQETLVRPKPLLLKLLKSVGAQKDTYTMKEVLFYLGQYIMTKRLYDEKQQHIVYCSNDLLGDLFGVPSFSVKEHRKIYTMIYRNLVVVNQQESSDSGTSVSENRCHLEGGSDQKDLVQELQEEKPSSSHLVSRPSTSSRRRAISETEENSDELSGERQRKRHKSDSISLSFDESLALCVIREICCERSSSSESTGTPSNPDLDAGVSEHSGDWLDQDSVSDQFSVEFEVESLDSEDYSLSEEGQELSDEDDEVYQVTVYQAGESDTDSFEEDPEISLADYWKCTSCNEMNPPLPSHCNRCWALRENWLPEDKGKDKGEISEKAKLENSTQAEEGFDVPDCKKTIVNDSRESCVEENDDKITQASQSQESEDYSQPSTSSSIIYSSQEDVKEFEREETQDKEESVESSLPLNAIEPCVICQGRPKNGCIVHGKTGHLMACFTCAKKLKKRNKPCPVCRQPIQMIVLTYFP
Procedure: as §1, §2

binding result [1]: no binding | binding result [2]: no binding
B1: 53BP2 bait fragment, amino acids 704-1005 (C-terminus) of human 53BP2 (other)
chain: SPGLDYEPEGVPDNSPNLQNNPEEPNPEAPHVLDVYLEEYPPYPPPPYPSGEPEGPGEDSVSMRPPEITGQVSLPPGKRTNLRKTGSERIAHGMRVKFNPLALLLDSSLEGEFDLVQRIIYEVDDPSLPNDEGITALHNAVCAGHTEIVKFLVQFGVNVNAADSDGWTPLHCAASCNNVQVCKFLVESGAAVFAMTYSDMQTAADKCEEMEEGYTQCSQFLYGVQEKMGIMNKGVIYALWDYEPQNDDELPMKEGDCMTIIHREDEDEIEWWWARLNDKEGYVPRNLLGLYPRIKPRQRSLA
notes: also called BBP; not shown: residues not

binding result [3]: no binding | binding result [4]: no binding
B2: p62 prey sequence, amino acids 275-443 (other, yeast)
chain: NGVPEPSRGRGVPVRGRGAAPPPPPVPRGRGVGPPRGALVRGTPVRGAITRGATVTRGVPPPPTVRGAPAPRARTAGIQRIPLPPPPAPETYEEYGYDDTYAEQSYEGYEGYYSQSQGDSEYYDYGHGEVQDSYEAYGQDDWNGTRPSLKAPPARPVKGAYREHPYGRY
